Source: the Human Domainome abundance scans (Beltran et al. 2025)
± gives the uncertainty stated by the source.

B1: Storkhead-box protein 2, residues 64 to 141; numbered along this chain, Q9P2F5 (parent)
chain: SPISQSQFIPLGEILCLAISAMNSARKPVTQEALMEHLTTCFPGVPTPSQEILRHTLNTLVRERKIYPTPDGYFIVTP

Variants of: B1
Experiment: abundance fitness (aPCA) (normalised: wild type 0, dead -1); higher = more abundant; growth selection in yeast, the domain comes from the species named
Conditions: Homo sapiens

Abundance fitness of substitutions, site by site:
P46: H -0.14 ± 0.072; T -0.03 ± 0.056; E -0.067 ± 0.039; F -0.408 ± 0.08; W -0.174 ± 0.044; V -0.086 ± 0.04; N -0.124 ± 0.12; R -0.157 ± 0.034; I 0.015 ± 0.085; S -0.15 ± 0.045; K -0.243 ± 0.1; L -0.128 ± 0.035; C -0.078 ± 0.067; D -0.081 ± 0.075; Y -0.402 ± 0.17; M -0.107 ± 0.058; G -0.133 ± 0.032; Q -0.187 ± 0.06; A -0.079 ± 0.046
L38: R -0.894 ± 0.091; I -0.091 ± 0.13; S -0.613 ± 0.066; A -0.386 ± 0.07; G -0.787 ± 0.065; Q -0.865 ± 0.16; P -0.998 ± 0.3; K -0.608 ± 0.4; T -0.258 ± 0.059; V -0.075 ± 0.047; W -0.048 ± 0.061; H -0.388 ± 0.21; F 0.014 ± 0.093; Y -0.391 ± 0.13; C -0.316 ± 0.12; D -0.915 ± 0.26
F42: R 0.001 ± 0.1; A -0.05 ± 0.12; I 0.009 ± 0.15; E 0.108 ± 0.13; N 0.106 ± 0.21; V -0.045 ± 0.11; Q -0.661 ± 0.47; D 0.273 ± 0.28; W -0.086 ± 0.047; M 0.033 ± 0.2; T 0.176 ± 0.17; L -0.08 ± 0.1; P -0.057 ± 0.1
E51: D 0.028 ± 0.11; R -0.231 ± 0.049; W -0.145 ± 0.062; H 0.027 ± 0.18; A -0.085 ± 0.048; V -0.145 ± 0.051; P 0.009 ± 0.052; C -0.104 ± 0.077; T -0.085 ± 0.088; N -0.301 ± 0.17; M -0.203 ± 0.099; K 0.003 ± 0.098; G -0.1 ± 0.044; S -0.039 ± 0.056; Y -0.161 ± 0.1; F -0.207 ± 0.1; Q -0.099 ± 0.071
C41: R -0.05 ± 0.047; Y -0.062 ± 0.09; M 0.032 ± 0.091; G 0.019 ± 0.042; W -0.088 ± 0.056; V -0.056 ± 0.035; F 0.01 ± 0.082; S 0.021 ± 0.065; H -0.096 ± 0.15; D -0.055 ± 0.064; T -0.105 ± 0.072; Q -0.292 ± 0.16; P -0.534 ± 0.1; I -0.129 ± 0.15; E 0.004 ± 0.067; K -0.11 ± 0.082; A 0.019 ± 0.051; N -0.024 ± 0.14
T39: W -0.003 ± 0.064; K -0.15 ± 0.13; F -0.099 ± 0.078; V 0.098 ± 0.057; E -0.137 ± 0.14; Y 0.024 ± 0.11; R 0.016 ± 0.042; H -0.044 ± 0.13; G 0.019 ± 0.051; L -0.095 ± 0.04; A -0.025 ± 0.053; I 0.04 ± 0.11; C -0.038 ± 0.058; S -0.043 ± 0.044; D 0.09 ± 0.11; P -0.076 ± 0.05; M -0.117 ± 0.084
P43: M -0.21 ± 0.071; V -0.076 ± 0.047; A -0.137 ± 0.056; S -0.023 ± 0.048; D -0.119 ± 0.17; F -0.184 ± 0.093; I -0.092 ± 0.11; L -0.09 ± 0.055; E -0.006 ± 0.065; Y -0.109 ± 0.093; T -0.028 ± 0.067; W -0.23 ± 0.055; C -0.135 ± 0.026; K 0.048 ± 0.057; G -0.101 ± 0.036; H -0.001 ± 0.11; Q -0.057 ± 0.064
V45: W 0.028 ± 0.042; C -0.003 ± 0.05; F 0.067 ± 0.069; L -0.05 ± 0.031; R -0.06 ± 0.03; H 0.078 ± 0.12; T -0.031 ± 0.061; N -0.209 ± 0.13; M -0.109 ± 0.06; Q -0.007 ± 0.076; I 0.026 ± 0.08; A -0.088 ± 0.043; K -0.222 ± 0.091; E -0.155 ± 0.067; D -0.207 ± 0.091; P -0.168 ± 0.064; S -0.113 ± 0.043; Y 0.051 ± 0.12
M35: N -0.249 ± 0.34; I 0.044 ± 0.092; F 0.04 ± 0.071; P -0.361 ± 0.075; R -0.103 ± 0.054; V -0.092 ± 0.052; A 0.02 ± 0.071; E -0.113 ± 0.12; T -0.024 ± 0.08; C -0.038 ± 0.091; H 0.018 ± 0.098; G -0.049 ± 0.049; L -0.058 ± 0.062; S 0.005 ± 0.073; W -0.124 ± 0.067; D -0.191 ± 0.22; Q -0.063 ± 0.092; Y -0.164 ± 0.14; K -0.299 ± 0.14
Q50: F 0.013 ± 0.16; M 0.036 ± 0.083; W -0.082 ± 0.067; G 0.053 ± 0.044; S -0.034 ± 0.069; Y 0.174 ± 0.19; K -0.014 ± 0.097; I 0.047 ± 0.12; D 0.118 ± 0.15; N -0.08 ± 0.16; A -0.011 ± 0.053; R -0.036 ± 0.043; C -0.076 ± 0.1; H -0.022 ± 0.1; T -0.08 ± 0.086; V -0.131 ± 0.059; P -0.055 ± 0.081
E36: F -0.158 ± 0.1; Y -0.144 ± 0.2; W -0.187 ± 0.064; Q 0.029 ± 0.075; V -0.102 ± 0.044; A -0.063 ± 0.052; T -0.006 ± 0.067; R 0.003 ± 0.039; S -0.001 ± 0.048; N 0.054 ± 0.11; P -0.424 ± 0.061; G -0.028 ± 0.047; D -0.012 ± 0.083; L -0.058 ± 0.048; M -0.059 ± 0.12; C -0.064 ± 0.067; K -0.008 ± 0.087; H -0.082 ± 0.079
S49: E -0.24 ± 0.063; K -0.139 ± 0.055; N -0.173 ± 0.11; G -0.068 ± 0.032; Q -0.265 ± 0.082; F -0.887 ± 0.1; H -0.225 ± 0.077; M -0.68 ± 0.1; L -0.684 ± 0.055; V -0.575 ± 0.043; R -0.21 ± 0.036; C -0.068 ± 0.053; P -0.27 ± 0.045; A -0.109 ± 0.035; T -0.16 ± 0.055; I -0.835 ± 0.12
P48: I -0.016 ± 0.069; G -0.311 ± 0.034; Y -0.201 ± 0.06; E -0.447 ± 0.069; W -0.28 ± 0.045; K -0.44 ± 0.15; A -0.186 ± 0.044; L -0.259 ± 0.039; D -0.398 ± 0.055; R -0.415 ± 0.035; F -0.141 ± 0.072; M -0.099 ± 0.13; T -0.357 ± 0.054; S -0.418 ± 0.039; C -0.085 ± 0.048; Q -0.156 ± 0.071; H -0.354 ± 0.065; N -0.5 ± 0.099
T47: V 0.071 ± 0.031; E -0.199 ± 0.05; K 0.021 ± 0.056; F -0.273 ± 0.055; P -0.191 ± 0.049; G -0.197 ± 0.026; C -0.115 ± 0.053; Q -0.067 ± 0.054; A -0.082 ± 0.034; Y -0.132 ± 0.085; R -0.018 ± 0.032; H -0.166 ± 0.12; L -0.073 ± 0.032; D -0.277 ± 0.067; S -0.092 ± 0.041; N -0.151 ± 0.1; W -0.397 ± 0.04; I 0.11 ± 0.064
T40: E -0.048 ± 0.09; P -0.551 ± 0.06; K -0.042 ± 0.063; C 0.002 ± 0.078; V -0.013 ± 0.051; I -0.066 ± 0.073; M -0.104 ± 0.13; R 0.016 ± 0.041; N -0.133 ± 0.17; L -0.077 ± 0.024; A -0.158 ± 0.057; Q 0.021 ± 0.076; F -0.105 ± 0.094; G -0.045 ± 0.042; D -0.069 ± 0.098; Y -0.069 ± 0.12; S -0.005 ± 0.047
G44: P -0.063 ± 0.053; S 0.016 ± 0.042; D 0.073 ± 0.12; Y -0.036 ± 0.12; N 0.024 ± 0.17; W -0.103 ± 0.056; L -0.091 ± 0.034; M -0.024 ± 0.055; C -0.046 ± 0.064; Q -0.055 ± 0.068; A -0.054 ± 0.044; T -0.037 ± 0.054; V -0.111 ± 0.035; F -0.156 ± 0.069; H -0.023 ± 0.077; R 0.117 ± 0.032
I52: G -0.083 ± 0.036; K -0.029 ± 0.072; C -0.038 ± 0.094; L -0.05 ± 0.052; M 0.056 ± 0.064; A -0.085 ± 0.045; P -0.654 ± 0.09; Y 0.171 ± 0.27; H 0.011 ± 0.092; F 0.011 ± 0.088; S -0.134 ± 0.054; T 0.025 ± 0.069; W -0.019 ± 0.056; E -0.042 ± 0.057; N -0.46 ± 0.17; V 0.035 ± 0.044; D -0.043 ± 0.11; R -0.086 ± 0.045
H37: W -0.27 ± 0.049; G -0.236 ± 0.042; F -0.285 ± 0.11; M -0.357 ± 0.072; S -0.23 ± 0.045; R -0.144 ± 0.039; Y -0.159 ± 0.083; A -0.285 ± 0.053; T -0.322 ± 0.11; P -0.802 ± 0.12; N -0.092 ± 0.11; E -0.104 ± 0.061; C -0.222 ± 0.086; D -0.259 ± 0.074; L -0.548 ± 0.049; K -0.164 ± 0.1; V -0.48 ± 0.055
L34: V -0.045 ± 0.039; I -0.012 ± 0.12; H -0.87 ± 0.21; Q -0.774 ± 0.11; K -1 ± 0.21; C -0.048 ± 0.074; M -0.208 ± 0.087; T -0.576 ± 0.084; R -0.83 ± 0.067; E -1.08 ± 0.22; G -1.09 ± 0.094; F -0.576 ± 0.12; P -1.09 ± 0.14; W -0.994 ± 0.12; S -0.869 ± 0.071
L53: I -0.007 ± 0.11; C -0.113 ± 0.14; G -0.856 ± 0.068; E -0.929 ± 0.15; F -0.113 ± 0.12; K -0.943 ± 0.28; H -0.756 ± 0.18; A -0.124 ± 0.058; M 0.019 ± 0.047; D -0.747 ± 0.4
